For 42 variants, abundance fitness results are on record in the Human Domainome abundance scans (Beltran et al. 2025).

± gives the uncertainty stated by the source.

The labels stand for the following.
B1: Dynamin-binding protein, residues 242 to 304; numbered along this chain, Q6XZF7 (parent)
chain: EEPGTYGVALYRFQALEPNELDFEVGDKIRILATLEDGWLEGSLKGRTGIFPYRFVKLCPDTR

The data set covers variants of B1. Kind of data set: abundance fitness (aPCA) (normalised: wild type 0, dead -1); higher = more abundant; growth selection in yeast, the domain comes from the species named. Particulars: Homo sapiens.
In the case of EEPGTYGVALYRFQALEPNELDFEVFDKIRILATLEDGWLEGSLKGRTGIFPYRFVKLCPDTR [G26F], the abundance fitness is -0.682 ± 0.09.

On to EEPGTYGVALYRFQALEPNELDFEVLDKIRILATLEDGWLEGSLKGRTGIFPYRFVKLCPDTR [G26L], for which the abundance fitness is -0.598 ± 0.087.

Regarding EEPGTYGVALYRFQALEPNELDFEVTDKIRILATLEDGWLEGSLKGRTGIFPYRFVKLCPDTR [G26T], the abundance fitness was -0.831 ± 0.14.

In the case of EEPGTYGVALYRFQALEPNELDFEVHDKIRILATLEDGWLEGSLKGRTGIFPYRFVKLCPDTR [G26H], the abundance fitness was -0.718 ± 0.11.

As for EEPGTYGVALYRFQALEPNELDFEVQDKIRILATLEDGWLEGSLKGRTGIFPYRFVKLCPDTR [G26Q], the abundance fitness is -0.061 ± 0.2.

For the variant EEPGTYGVALYRFQALEPNELDFEVNDKIRILATLEDGWLEGSLKGRTGIFPYRFVKLCPDTR [G26N], the abundance fitness is -0.563 ± 0.087.

As to EEPGTYGVALYRFQALEPNELDFEVEDKIRILATLEDGWLEGSLKGRTGIFPYRFVKLCPDTR [G26E], the abundance fitness is -1.01 ± 0.34.

Take EEPGTYGVALYRFQALEPNELDFEVIDKIRILATLEDGWLEGSLKGRTGIFPYRFVKLCPDTR [G26I]: the abundance fitness is -0.744 ± 0.094.

In the case of EEPGTYGVALYRFQALEPNELDFEVYDKIRILATLEDGWLEGSLKGRTGIFPYRFVKLCPDTR [G26Y], the abundance fitness was -0.847 ± 0.17.

On to EEPGTYGVALYRFQALEPNELDFEVMDKIRILATLEDGWLEGSLKGRTGIFPYRFVKLCPDTR [G26M], for which the abundance fitness was -1.02 ± 0.26.

As for EEPGTYGVALYRFQALEPNELDFEVKDKIRILATLEDGWLEGSLKGRTGIFPYRFVKLCPDTR [G26K], the abundance fitness is -0.643 ± 0.39.

Take EEPGTYGVALYRFQALEPNELDFEVCDKIRILATLEDGWLEGSLKGRTGIFPYRFVKLCPDTR [G26C]: the abundance fitness is -0.334 ± 0.054.

EEPGTYGVALYRFQALEPNELDFEVADKIRILATLEDGWLEGSLKGRTGIFPYRFVKLCPDTR [G26A]: the abundance fitness was -0.86 ± 0.15.

As for EEPGTYGVALYRFQALEPNELDFEVVDKIRILATLEDGWLEGSLKGRTGIFPYRFVKLCPDTR [G26V], the abundance fitness was -0.844 ± 0.086.

Turning to EEPGTYGVALYRFQALEPNELDFEVDDKIRILATLEDGWLEGSLKGRTGIFPYRFVKLCPDTR [G26D], the abundance fitness was -0.568 ± 0.091.

Take EEPGTYGVALYRFQALEPNELDFEVRDKIRILATLEDGWLEGSLKGRTGIFPYRFVKLCPDTR [G26R]: the abundance fitness was -0.866 ± 0.099.

For EEPGTYGVALYRFQALEPNELDFEVSDKIRILATLEDGWLEGSLKGRTGIFPYRFVKLCPDTR [G26S], the abundance fitness was -0.674 ± 0.069.

With EEPGTYGVALYRFQALEPNELDFEVPDKIRILATLEDGWLEGSLKGRTGIFPYRFVKLCPDTR [G26P], the abundance fitness is -1.07 ± 0.22.

EEPGTYGVALYRFQALEPNELDFEFGDKIRILATLEDGWLEGSLKGRTGIFPYRFVKLCPDTR [V25F]: the abundance fitness is -0.573 ± 0.08.

For EEPGTYGVALYRFQALEPNELDFERGDKIRILATLEDGWLEGSLKGRTGIFPYRFVKLCPDTR [V25R], the abundance fitness was -0.223 ± 0.059.

As for EEPGTYGVALYRFQALEPNELDFEGGDKIRILATLEDGWLEGSLKGRTGIFPYRFVKLCPDTR [V25G], the abundance fitness is -0.539 ± 0.064.

For EEPGTYGVALYRFQALEPNELDFEKGDKIRILATLEDGWLEGSLKGRTGIFPYRFVKLCPDTR [V25K], the abundance fitness amounted to 0.095 ± 0.14.

As for EEPGTYGVALYRFQALEPNELDFELGDKIRILATLEDGWLEGSLKGRTGIFPYRFVKLCPDTR [V25L], the abundance fitness is -0.933 ± 0.13.

Turning to EEPGTYGVALYRFQALEPNELDFEMGDKIRILATLEDGWLEGSLKGRTGIFPYRFVKLCPDTR [V25M], the abundance fitness is -0.169 ± 0.16.

With EEPGTYGVALYRFQALEPNELDFEAGDKIRILATLEDGWLEGSLKGRTGIFPYRFVKLCPDTR [V25A], the abundance fitness is -0.089 ± 0.058.

For the variant EEPGTYGVALYRFQALEPNELDFECGDKIRILATLEDGWLEGSLKGRTGIFPYRFVKLCPDTR [V25C], the abundance fitness was -0.328 ± 0.06.

Turning to EEPGTYGVALYRFQALEPNELDFEYGDKIRILATLEDGWLEGSLKGRTGIFPYRFVKLCPDTR [V25Y], the abundance fitness is -0.463 ± 0.086.

For the variant EEPGTYGVALYRFQALEPNELDFEIGDKIRILATLEDGWLEGSLKGRTGIFPYRFVKLCPDTR [V25I], the abundance fitness was -0.142 ± 0.063.

For the variant EEPGTYGVALYRFQALEPNELDFEQGDKIRILATLEDGWLEGSLKGRTGIFPYRFVKLCPDTR [V25Q], the abundance fitness was -0.548 ± 0.22.

As for EEPGTYGVALYRFQALEPNELDFETGDKIRILATLEDGWLEGSLKGRTGIFPYRFVKLCPDTR [V25T], the abundance fitness was -0.412 ± 0.086.

For the variant EEPGTYGVALYRFQALEPNELDFEPGDKIRILATLEDGWLEGSLKGRTGIFPYRFVKLCPDTR [V25P], the abundance fitness is -0.14 ± 0.081.

With EEPGTYGVALYRFQALEPNELDFEDGDKIRILATLEDGWLEGSLKGRTGIFPYRFVKLCPDTR [V25D], the abundance fitness was -0.899 ± 0.12.

As to EEPGTYGVALYRFQALEPNELDFESGDKIRILATLEDGWLEGSLKGRTGIFPYRFVKLCPDTR [V25S], the abundance fitness is -0.448 ± 0.061.

On to EEPGTYGVALYRFQALEPNELDFEEGDKIRILATLEDGWLEGSLKGRTGIFPYRFVKLCPDTR [V25E], for which the abundance fitness was -0.475 ± 0.15.

Consider EEPGTYGVALYRFQALEPNELDFENGDKIRILATLEDGWLEGSLKGRTGIFPYRFVKLCPDTR [V25N], for which the abundance fitness is -0.736 ± 0.1.

Regarding EEPGTYGVALYRFQALEPNELDFVVGDKIRILATLEDGWLEGSLKGRTGIFPYRFVKLCPDTR [E24V], the abundance fitness was -0.471 ± 0.06.

As to EEPGTYGVALYRFQALEPNELDFHVGDKIRILATLEDGWLEGSLKGRTGIFPYRFVKLCPDTR [E24H], the abundance fitness was -0.199 ± 0.075.

On to EEPGTYGVALYRFQALEPNELDFDVGDKIRILATLEDGWLEGSLKGRTGIFPYRFVKLCPDTR [E24D], for which the abundance fitness was determined as 0.009 ± 0.055.

Regarding EEPGTYGVALYRFQALEPNELDFGVGDKIRILATLEDGWLEGSLKGRTGIFPYRFVKLCPDTR [E24G], the abundance fitness was -0.596 ± 0.073.

As to EEPGTYGVALYRFQALEPNELDFYVGDKIRILATLEDGWLEGSLKGRTGIFPYRFVKLCPDTR [E24Y], the abundance fitness was -0.423 ± 0.079.

Regarding EEPGTYGVALYRFQALEPNELDFAVGDKIRILATLEDGWLEGSLKGRTGIFPYRFVKLCPDTR [E24A], the abundance fitness was -0.593 ± 0.086.

For EEPGTYGVALYRFQALEPNELDFMVGDKIRILATLEDGWLEGSLKGRTGIFPYRFVKLCPDTR [E24M], the abundance fitness is -0.313 ± 0.2.
